Measured values from article PMC10716038, “Talin and kindlin use integrin tail allostery and direct binding to activate integrins” (Nature Structural & Molecular Biology, 2023).
Where “and” joins values, the source holds several entries; their conditions need not be identical. Identical values can stand only once. No end group written: not given here.

What was measured:
Conditions in all cases: both partners purified
[1] = biological target: T1, THD1 Δ401-405 (UniProt P26039 1-405, Δ401-405); assay: MST; apparent; THD1 or THD1 mutants titrated to 488–β3-CT in the presence of 30-40 µM KIND2; MST buffer
T1 construct: source: E. coli (DE3) Rosetta 2, purified (IMAC, SEC); not shown: His10-SUMO, N-terminal, cleaved

[2] = biological target: T2, THD1 L400A (UniProt P26039 1-405, L400A); assay: as above
T2 construct: talin-1 (TLN1) head domain, residues 1-405, L400A; source: E. coli (DE3) Rosetta 2, purified (IMAC, SEC); not shown: His10-SUMO, N-terminal, cleaved

[3] = biological target: T3, THD1 I398A (UniProt P26039 1-405, I398A); assay: as above
T3 construct: talin-1 (TLN1) head domain, residues 1-405, I398A; source: E. coli (DE3) Rosetta 2, purified (IMAC, SEC); not shown: His10-SUMO, N-terminal, cleaved

[4] = biological target: T4, THD1 K404A (UniProt P26039 1-405, K404A); assay: as above
T4 construct: talin-1 (TLN1) head domain, residues 1-405, K404A; source: E. coli (DE3) Rosetta 2, purified (IMAC, SEC); not shown: His10-SUMO, N-terminal, cleaved

[5] = biological target: T5, THD1 K403E (UniProt P26039 1-405, K403E); assay: as above
T5 construct: talin-1 (TLN1) head domain, residues 1-405, K403E; source: E. coli (DE3) Rosetta 2, purified (IMAC, SEC); not shown: His10-SUMO, N-terminal, cleaved

[6] = biological target: T6, THD1 I399A (UniProt P26039 1-405, I399A); assay: as above
T6 construct: talin-1 (TLN1) head domain, residues 1-405, I399A; source: E. coli (DE3) Rosetta 2, purified (IMAC, SEC); not shown: His10-SUMO, N-terminal, cleaved

[7] = biological target: T7, THD1 I396A (UniProt P26039 1-405, I396A); assay: as above
T7 construct: talin-1 (TLN1) head domain, residues 1-405, I396A; source: E. coli (DE3) Rosetta 2, purified (IMAC, SEC); not shown: His10-SUMO, N-terminal, cleaved

[8] = biological target: T8, THD1 K401A (UniProt P26039 1-405, K401A); assay: as above
T8 construct: talin-1 (TLN1) head domain, residues 1-405, K401A; source: E. coli (DE3) Rosetta 2, purified (IMAC, SEC); not shown: His10-SUMO, N-terminal, cleaved

[9] = biological target: T9, kindlin-2 (KIND2) (UniProt Q8CIB5 1-680); assay: MST; apparent; KIND2 titrated to 488–β3-CT in the presence of 100–400 µM THD2; MST buffer
T9 construct: kindlin-2 (KIND2), recombinant; with the F1 loop and the PH domain (unlike ΔKIND2); source: E. coli Rosetta, purified (IMAC, SEC); not shown: His10-SUMO, N-terminal, cleaved
T9 sequence (looked up): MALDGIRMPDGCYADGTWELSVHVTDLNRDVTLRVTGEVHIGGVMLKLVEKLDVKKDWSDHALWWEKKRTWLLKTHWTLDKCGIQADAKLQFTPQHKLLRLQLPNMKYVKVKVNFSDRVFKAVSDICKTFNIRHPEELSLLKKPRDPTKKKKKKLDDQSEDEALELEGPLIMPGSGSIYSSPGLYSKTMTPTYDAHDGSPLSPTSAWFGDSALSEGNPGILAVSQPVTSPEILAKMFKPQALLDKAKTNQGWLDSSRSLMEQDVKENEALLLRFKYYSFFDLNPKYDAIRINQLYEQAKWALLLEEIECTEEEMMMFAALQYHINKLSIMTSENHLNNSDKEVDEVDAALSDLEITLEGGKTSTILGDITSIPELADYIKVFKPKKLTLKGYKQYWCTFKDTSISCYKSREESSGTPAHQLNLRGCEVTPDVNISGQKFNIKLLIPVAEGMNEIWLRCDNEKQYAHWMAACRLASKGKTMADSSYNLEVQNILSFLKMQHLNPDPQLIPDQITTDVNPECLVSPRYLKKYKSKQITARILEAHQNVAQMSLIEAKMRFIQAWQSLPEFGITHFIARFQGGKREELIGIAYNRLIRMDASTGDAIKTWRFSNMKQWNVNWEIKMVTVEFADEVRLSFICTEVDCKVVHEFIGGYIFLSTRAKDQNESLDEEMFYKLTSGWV

[10] = biological target: T10, talin-1 head domain (THD1) (UniProt P26039 1-405); assay: MST; unlabelled protein titrated to 50-200 nM ATTO 488-labelled β-CT peptide, no third protein; 20 mM Tris pH 7.5, 200 mM NaCl, 1 mM TCEP, 0.05% Tween-20; Kd of individual titrations (in S0002 mean and sd, n = 2)
T10 construct: talin-1 (TLN1) head domain (THD), residues 1-405; murine TLN1 cDNA is named only for the cell lines; also called WT; source: E. coli (DE3) Rosetta 2, purified (IMAC, SEC); not shown: His10-SUMO, N-terminal, cleaved
T10 sequence (P26039 1-405): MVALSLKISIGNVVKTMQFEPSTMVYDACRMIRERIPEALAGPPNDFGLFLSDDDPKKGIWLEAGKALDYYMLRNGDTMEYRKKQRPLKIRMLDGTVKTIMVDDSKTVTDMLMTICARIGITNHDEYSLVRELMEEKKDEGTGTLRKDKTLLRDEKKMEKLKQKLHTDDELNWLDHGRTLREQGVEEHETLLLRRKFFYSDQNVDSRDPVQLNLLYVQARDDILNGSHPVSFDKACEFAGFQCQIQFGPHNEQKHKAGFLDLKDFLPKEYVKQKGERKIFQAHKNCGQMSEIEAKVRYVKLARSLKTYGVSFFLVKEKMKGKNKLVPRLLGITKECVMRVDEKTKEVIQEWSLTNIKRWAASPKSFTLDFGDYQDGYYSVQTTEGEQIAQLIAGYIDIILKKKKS

T2 sequence (P26039 1-405 L400A): as the sequence (P26039 1-405) above, with L400A counted along it
T6 sequence (P26039 1-405 I399A): as the sequence (P26039 1-405) above, with I399A counted along it
T4 sequence (P26039 1-405 K404A): as the sequence (P26039 1-405) above, with K404A counted along it
T8 sequence (P26039 1-405 K401A): as the sequence (P26039 1-405) above, with K401A counted along it
T7 sequence (P26039 1-405 I396A): as the sequence (P26039 1-405) above, with I396A counted along it
T5 sequence (P26039 1-405 K403E): as the sequence (P26039 1-405) above, with K403E counted along it
T1 sequence (P26039 1-400, stated change not applied): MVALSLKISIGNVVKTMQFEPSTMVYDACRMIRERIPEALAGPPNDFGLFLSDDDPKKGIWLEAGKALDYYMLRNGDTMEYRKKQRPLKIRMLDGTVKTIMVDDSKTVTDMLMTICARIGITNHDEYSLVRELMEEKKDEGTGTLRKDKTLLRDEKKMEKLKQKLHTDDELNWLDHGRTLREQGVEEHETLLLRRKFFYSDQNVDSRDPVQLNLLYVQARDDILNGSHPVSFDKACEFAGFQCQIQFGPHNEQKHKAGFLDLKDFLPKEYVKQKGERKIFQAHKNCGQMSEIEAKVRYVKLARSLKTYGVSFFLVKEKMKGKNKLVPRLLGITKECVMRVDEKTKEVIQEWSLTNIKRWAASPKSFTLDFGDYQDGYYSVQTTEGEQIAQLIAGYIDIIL
T3 sequence (P26039 1-405 I398A): as the sequence (P26039 1-405) above, with I398A counted along it

- Kd [1]: 560 µM
- Kd [2]: 180 µM
- Kd [3]: 155 µM
- Kd [4]: 116 µM
- Kd [5]: 116 µM
- Kd [6]: 91 µM
- Kd [7]: 551 µM
- Kd [8]: 148 µM
- Kd [9]: 20.9 µM and 29.1 µM and 29.5 µM
- Kd [10]: 127 µM and 115 µM and 93.9 µM and 85.5 µM
B1: ATTO 488-labeled integrin β3 cytoplasmic tail (488–β3-CT) (peptide, UniProt O54890 741-787, looked up)
peptide: {ATTO 488}-KLLITIHDRKEFAKFEEERARAKWDTANNPLYKEATSTFTNITYRGT
notes: integrin β3 cytoplasmic tail (β3-CT); source: synthetic peptide (MPIB Core Facility)
